Measurements as given in article PMC6859904.
Read-outs that look alike come from different tables or passages of the source.

Measured: enzymatic_activity

VCP/p97: 3D (S13D, S282D, T761D) phosphomimetic
increases: phosphorylation at S13 | phosphorylation at S282 | phosphorylation at T761
